The values that follow come from the DeepSol protein solubility set.

The series in a line: soluble on expression in E. coli; label from the status in PepcDB or PDB records.
“DPFSNLTELANALKEKYQLKNVTVAFSQTNDYSEISKQISQSAAEYLEEIIHDDDILGVSWGTTMYKIAQKLSPQKAEIKVVQLKGGVSHSDVNTYAAETLALFGAAYDTAPVSLPLPVVLDNPLAKQMVEADRHIKNIIELGKKANIAIFTVGTVREEALLFRLGYFSDEEKIRLKEKAVGDICSRFFTINGEIADEKMNERTIGIDLQDLKQKETAILVAGGERKIKAIHGALRGGYANHFITDQYTAKQLLEQNFS”: the “soluble on expression in E. coli” value is recorded as “not soluble”.

Regarding “MRCKGFLFDLDGTLVDSLPAVERAWSNWARRHGLAPEEVLAFIHGKQAITSLRHFMAGKSEADIAAEFTRLEQIEATETEGITALPGAIALLNHLNKAGIPWAIVTSGSMPVARARHKIAGLPAPEVFVTAERVKRGKPEPDAYLLGAQLLGLAPQECVVVEDAPAGVLSGLAAGCHVIAVNAPADTPRLNEVDLVLHSLEQITVTKQPNGDVIIQ”, the “soluble on expression in E. coli” value is listed as “not soluble”.

With “KTQGFLTMSRRRISCKDLGHADCQGWLYKKKEKGSFLSNKWKKFWVILKGSSLYWYSNQMAEKADGFVNLPDFTVERASECKKKHAFKISHPQIKTFYFAAENVQEMNVWLNKLGSAVIHQESTTKDEECYSESEQEDPEIAAETPPPPHASQTQSLTAQQASSSSPSLSGTSYSFSSLENTVKTPSSFPSSLSKERQSLPDTVNSLSAAEDEGQPITFAVQVHSPVPSEAGIHKALENSFVTSESGFLNSLSSDDTSSLSSNHDHLTVPDKPAGSKIMDKEETKVSEDDEMEKLYKSLEQASLSPLGDRRPSTKKELRKSFVKRCKNPSINEKLHKIRTLNSTLKCKEHDLAMINQLLDDPKLTARKYREWKVMNTLLIQDIYQQQRASPAPDDTDDTPQELKKSPSSPSVENSI”, the “soluble on expression in E. coli” value is “soluble”.

Turning to “DRKMNRKMISIVENDGNGFREVFRYDYERKNFVPDNLKEITSIQLERSRELLGWSRDKLYREIENRLLLIRGLAEKGVYDYDTLARELVKYYTNGD”, the “soluble on expression in E. coli” value was “not soluble”.

In the case of “MIELKGISQHFRGAGGTDVHALRDVDLSIDKGEIFGIIGRSGAGKSTLVRVINLLNRPTSGTVTVAGQSLTALNADGLRQARRKIGMIFQHFNLLSSRTVYDNVALPLELAGTPRERIREIVLPLLELVGLDAHKDRYPAQISGGQKQRVGIARALASQPDVLLSDEATSALDPETTRSILDLLRKINRELGLTIVLITHQMEVIKQVCDRVAVLDAGRVVELGRVIDVFLKPRHDVTRALIGEVISQELPPSVLARVESRLVAARERGGRDHLFRLAFTGAGVDQPVLAQAIRNYGLDFNILHGHIDEIQGQAFGSLAILASGESADIDNAMHFLREQGVVVEEINHVVLEHHHHHH”, the “soluble on expression in E. coli” value is “not soluble”.

Regarding “GPGSMQRGFCRVGTVTVSQAQKRAAELINSSDGFCSNVMRTVQFTPTGVKACDGESMGFSWRANQRALNGFRSTHGGALAILADTFTQIHLGAARPAAEFRSVSFEINYLEAIPENAECTCITRIVGDGESDIHHVEYSFQDERRRKVFSRGTHVLSCTK”, the “soluble on expression in E. coli” value is “soluble”.

Consider “MGSDKIHHHHHHMKKILVVGDFIKGSGLTNYLLNIYSSLPKDEFLISCVSYSGQHNIDTVLEEKKWEKFEVTPITQDIIKHFKDWNNFFKLHGNDFDEIHFNYSAPWNFIAILLAKLKSKAKIIVQSHNNYYSKQPKGLQKKVLAVLNVTGRTVIGRCSDIRLAVSEDSAQWMFGKRNVQILKNGINLKDFEYQPGPREELRKSIGINKGKKIIGFVGTLEKRKNPYFAIECLKKLNKEYILLMFGQGVLKKDLEKKIMDEGLEHRIKLMGVVDNLNEWYSVFDLFLFPSLTEGFGFALLEAQANGLKCFSSTSIPKEAKITNDVTSLNLSEINKWIDEIEKTSINDRERRSKQNCRIIEKKGFSIENTSKQFKRILLGDLS”, for which the “soluble on expression in E. coli” value was “not soluble”.

On to “MKYVASFSGGKDSAAMLLLILEKRLLLDEIVFIDTGLEFKEIYDIIDDFEKRINFKITRIKAEKTFEEYFYTVNKQGKRKGQIWGFPYTLGAWCNSRLKLAPANKYFNSIGEHKRYIGIAFDEPSRYRRLEKNCIAPLYEAKMTEKDCLKYLEKKGFYYDIHHRFKRTGCY”, for which the “soluble on expression in E. coli” value was “not soluble”.

On to “MQLYYLGPKGTFSYLACRQYFSENEATFQPKSNLFEVIKAVADDDTSIGVVPIENSIEGTINIVADALAQQDVFAHGEIRLDINFALYGNGTDSISDIKKVYSIAPAISQTTNYIHQHQFDYDYVDSTIQSLTKIENGVAAIAPLGSGEAYGFTPIDTHIEDYPHNVTRFLVIKNQQQFDQNATSLMFLITPMHDKPGLLASVLNTFALFNINLSWIESRPLKTQLGMYRFFVQADSAITTDIKKVIAILETLDFKVEMIGAFN”, for which the “soluble on expression in E. coli” value is recorded as “soluble”.

On to “MKNKVVVVTGVPGVGGTTVTQKAMDILSEEGLNYKMVNFGSAMFDVANEEGLASDRDQMRKLDPETQKRIQKMAGRKIAEMAKESPVAVDTHSTVKTPKGYLPGLPAWVLTELNPDIVIVVETDGDEILMRRLSDESRKRDLETTASIEEHQFMNRAAAMSYGVLTGATVKIVKNKNGLVDNAVEELMSVLR”, for which the “soluble on expression in E. coli” value is “soluble”.

Regarding “MDSDPLGVFPNSPKYHPYYSQTTEFGGVIDLGLSLRTIQHEIYHSSGQIMTCGKGYCSNEGYRRKWGYVKVTMDGLVVGRKVCVLDHGSYSTLAHQLEDMFGMQSVSGLRLFQMESEFCLVYRDEEGLWRNAGDVPWNEFIESVERLRITRRNDAVLPF”, the “soluble on expression in E. coli” value was “not soluble”.

As to “MGSDKIHHHHHHLLKSSSTVHKGADYWTKRISDQEMPALCSTVRELEKLAKDDVSSLAILGRSVMHDNALTSRILRVANSATYNKGINHVSTVSRAAVMLGFDTLRNICITARLLSSLLENKNLSPNVYQRLLKLMAQSFQAAMLARMMMTGHDEKLREEVFIASLLYRIGESAFWSTGGSFSDALDQKLRDSDSEQDPQAIVRDILGTSFSQLTQNIARSWGLGEVLLKSLSHPDERTPEIRCIALADKLAQLLIEPAEDPNEFAERLKQTADMLNIEVSEFRQKVVDCTKATQKLAIDYGAKVLLDFLPKSADVKASVDQEAKPLVVRASDAAIQLKKLRELTGYALTKTDFNQVMLTALEGILSGVGVDRCGVLLLSPNRQLLQPRIMLGDEAEAMKREFIISLDETMSIFSQCVERKTPFWVADPNAKEWQKSINPALKTKLSKTGFFLAPVSIDTRVIGVFFADRSHSGRSFEPQDYDNFTHFTQLANICFGVSVK”, the “soluble on expression in E. coli” value is “not soluble”.

“MNFGAYGKITDVEFVSDSEGPLHFCIITFADSRSVDVLLTKSIYIRDVLMFTRRAVLKESVKIAEHKIKEQEQQNLVQLPPNHTAYLTPSRPVTSVHASSSASSNHYDPSAAAGYAPLYHQPPESDPLSQCGYGPRKW”: the “soluble on expression in E. coli” value is “not soluble”.

“MSLAQLGRFWHISDLHLDPNYTVSKDPLQVCPSAGSQPVLNAGPWGDYLCDSPWALINSSLYAMKEIEPKPDFILWTGDDTPHVPNESLGEAAVLAIVERLTNLIKEVFPDTKVYAALGNHDFHPKNQFPAQSNRIYNQVAELWRPWLSNESYALFKRGAFYSEKLPGPSRAGRVVVLNTNLYYSNNEQTAGMADPGEQFRWLGDVLSNASRDGEMVYVIGHVPPGFFEKTQNKAWFRESFNEEYLKVIQKHHRVIAGQFFGHHHTDSFRMFYDNTGAPINVMFLTPGVTPWKTTLPGVVDGANNPGIRIFEYDRATLNLKDLVTYFLNLRQANVQETPRWEQEYRLTEAYQVPDASVSSMHTALTRIASEPHILQRYYVYNSVSYNHLTCEDSCRIEHVCAIQHVAFNTYATCLHGLGAKLVPGEGHHHHHH”: the “soluble on expression in E. coli” value is “not soluble”.

In the case of “MGSDKIHHHHHHMELRDLQIFKCVAHHKSITGAAKELNYVQSNVTARIKQLENELKTPLFNRHKKGVSLSPEGRKMIEYVNKILKDVEELEQVFLDTEIPSGILKIGTVETVRILPTIIASYYKKYPNVDLSLQAGLTEELIKKVMNHELDGAFISGPLKHSILEQYDVYTEKLTLVTSNKTFNIEDFSTTPILVFNQGCGYRSRLEQWLKDEGVLPNRMMEFNILETILNSVALGLGITVVPESAVMHLAVQGKVYCHPLPEKDSCISTIFIRHKDAYLTNSMRSLLKTIVEHKNMSMA”, the “soluble on expression in E. coli” value is listed as “not soluble”.

Take “MNIDAVVEFTKKHLKDEKTGHDFYHGQRVANLASKMYLEDHPDAHADSRMVAIIKSGGYLHDTIDEKVCDNPDKVIAEIKELLPEVGFTDLEVWDILFTIQHMSFSANIEHHYHLPLSGQYVQDADRLESLGAMGIARAFTYGGKHGNKIYDPEIKPEKLVSHDQYRNHVETTINHFYEKLFHLADTMNTPAMKKEANRRTEYMHNFVQEFMNEWNVLEHHHHHH”: the “soluble on expression in E. coli” value is listed as “soluble”.

For “MSLARTPNGGAIACSDAAALGKDELFWGALFRGLNRGGSFLQLQIRQIIVTAIEDGRLPLGMKMPSSRDLATVLKVSRNTVVIAYEQLVDQNFLVSRQRSGYFVAGLPKKFATEAPGLAEVTSRGDEHWVDRFAVRPSAHRNIVKPLDWQTHPYPFIFGQFDPSLFPTNDWRESARAALSVPEINNWARDLIDGDDPALIEQLQLQVLPRRGIHARADEIMMTIGAQHALYLIATLFINGQTKVGIEEPGYPDARNIFRMLTPNVVPLSVDSEGVVPDAMFQSCALAYVTSSHQCPTAVTMPLPRRIELLKAAATGDVVVVEDDYEGELMPESATLPPLKSIDRASNVLYVGSLSKALAPGLRLGYVVAPAPVIRELRALRRLMLRHPPLNNQRVAALFIGLGHYRAHLAQVGRVLLERAKLLDQLLPKHLPSCSFSRGPGSTNFWVTCPTSIDATALAEAALEQGVVIEPGAVFSMDETASRHCFRLGFSSIRTDRIEVGIQRLGEVIAQHLKAEGHHHHHH”, the “soluble on expression in E. coli” value was “soluble”.

For the sequence “MNLMTTITGVVLAGGKARRMGGVDKGLLELNGKPLWQHVADALMTQLSHVVVNANRHQEIYQASGLKVIEDSLADYPGPLAGMLSVMQQEAGEWFLFCPCDTPYIPPDLAARLNHQRKDAPVVWVHDGERDHPTIALVNRAIEPLLLEYLQAGERRVMVFMRLAGGHAVDFSDHKDAFVNVNTPEELARWQEKRSHHHHHH”, the “soluble on expression in E. coli” value is “soluble”.

Consider “VSQRPFRDRVLHLLALRPYRKAELLLRLQKDGLTQADKDALDGLLQQVANMSAKDGTCTLQDCMYKDVQKDWPGYSEGDQQLLKRVLVRKL”, for which the “soluble on expression in E. coli” value is on record as “soluble”.

Turning to “MNKKVGESTLYEWLVSYQKLEQEIYYLDWELETYKKELERWCDPEDLGRYTLTKDSKASKLEDIIEDLEKRLAWKMNSIYDLRKLVYSFKGLDQKILVAKYIEGLSLKQIAGEFGHSYGYIRNKHNQILKKIEKSDNDVTIPIDKS”, the “soluble on expression in E. coli” value is “not soluble”.

Consider “MGSDKIHHHHHHMMTYYFIADLHLNESQPQITHQFLQFMQQKAPLAQAVYILGDFFDFWIGDDEQSVLISQVKLALKKLTASGVKCYFICGNRDFLLGQTFAQQTGIQLLADYHLLDLFGERTLLCHGDTLCIDDIKYQQFRRRVHQKRLQKLFLWLPLTLRIKIAQKIRRKSKQDKKNKSADIMDVNQAFTAQKVHQYGATHLIHGHTHRQAVHFEQNFTRIVLGDWRPDRSSILKVDEKGFEFL”, for which the “soluble on expression in E. coli” value is given as “not soluble”.
